This assay addresses T1, EGFR protein (UniProt P00533 25-645).
T1 construct: EGFR; source: bought: R&D Systems (1095-ER)
The assay can be described thus: pull-down; Fc fusion protein and its partner incubated in lysis buffer overnight at 4 °C; Protein A/G magnetic beads; both orientations (N-EGFR-Fc with Ephrin A1; Ephrin A1-Fc with EGFR protein). The settings on record: both partners purified.

Data on 1 molecule can be found in PMC11876641, “Ephrin A1 functions as a ligand of EGFR to promote EMT and metastasis in gastric cancer” (The EMBO Journal, 2025).

B1: Ephrin A1-Fc protein (Fc fusion, UniProt P20827 19-182, looked up)
chain: DRHTVFWNSSNPKFRNEDYTIHVQLNDYVDIICPHYEDHSVADAAMEQYILYLVEHEEYQLCQPQSKDQVRWQCNRPSAKHGPEKLSEKFQRFTPFTLGKEFKEGHSYYYISKPIHQHEDRCLRLKVTVSGKITHSPQAHDNPQEKRLAADDPEVRVLHSIGHS
notes: Ephrin A1; source: bought: R&D Systems (6417-A1)
Turning to B1, the binding result is reported as “binds”.
